*1 amine or outer side, *2 acyl side, *3 side chain or, on linkers, in order; H or OH if unused. Where a SMILES comes first, the peptide text is derived from it. Primed or numbered codes have the meaning given here. The star is where a group is joined. C22 diacid = O=C(O)CCCCCCCCCCCCCCCCCCCCC(=O)*; C20 diacid = O=C(O)CCCCCCCCCCCCCCCCCCC(=O)*; C18 diacid = O=C(O)CCCCCCCCCCCCCCCCC(=O)*; γGlu = O=C(O)[C@H](CCC(=O)[*:2])N[*:1]; Trx = NC[C@H]1CC[C@H](C(=O)O)CC1; Inp′ = not defined here; Trx′ = not defined here
T1: human amylin receptor (AMY3) on CHO-K1/Gal5/AMY3 cells (human, UniProt P30988 25-474; O60896 24-148)
T1 sequence (looked up) 1: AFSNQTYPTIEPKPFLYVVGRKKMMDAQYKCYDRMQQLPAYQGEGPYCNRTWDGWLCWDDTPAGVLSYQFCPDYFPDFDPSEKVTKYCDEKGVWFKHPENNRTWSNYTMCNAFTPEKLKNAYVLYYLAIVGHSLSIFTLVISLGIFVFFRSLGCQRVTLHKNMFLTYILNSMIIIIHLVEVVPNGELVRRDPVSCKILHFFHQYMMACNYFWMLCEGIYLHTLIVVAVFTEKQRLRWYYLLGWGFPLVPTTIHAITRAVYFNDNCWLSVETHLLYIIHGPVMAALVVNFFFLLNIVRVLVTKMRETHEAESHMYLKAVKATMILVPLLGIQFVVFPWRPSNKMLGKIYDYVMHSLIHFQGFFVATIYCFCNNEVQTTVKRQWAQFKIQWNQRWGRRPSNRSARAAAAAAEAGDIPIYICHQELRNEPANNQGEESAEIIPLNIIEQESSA
T1 sequence (looked up) 2: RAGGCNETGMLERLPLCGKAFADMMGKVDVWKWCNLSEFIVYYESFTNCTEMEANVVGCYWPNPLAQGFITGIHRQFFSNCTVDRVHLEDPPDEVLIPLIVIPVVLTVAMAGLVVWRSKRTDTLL


Columns and labels:
[1] = Heat accelerated stability assay under a neutral condition; assay type: physicochemical; details: pH about 7.4, 40°C
Description: The lyophilized powder (1 mg/mL) of calcitonin analogues or derivatives prepared in accordance with the method of Example 1 were mixed with sodium dihydrogen phosphate (1.42 mg/mL) and dissolved in ultrapure water in the indicated mass-volume ratios. After adjusting pH to about 7.4 with hydrochloric acid/sodium hydroxide, the solution was filtered into a sterilized vial in a clean bench using a 0.22 µm sterile filter. The vial was then capped and placed into the stability test chamber at 40°C. Detections were made on Days 7 (7d) and 26 (26d), and during the assay, changes in the characteristics and properties of the polypeptides were observed and recorded. The sample was then centrifuged for 3 min at 10000 rpm at 4°C, and the supernatant was transferred to a liquid phase sample vial for detecting the concentration and purity of the polypeptides using liquid phase chromatography described as below, wherein the concentration of the polypeptide = peak area/injection volume/extinction coefficient/60×flow rate, and the purity of the polypeptide = target peak area/total peak area× 100%.
Conditions of the reversed phase chromatography Flow rate: 1.0 ml/min; Autosampler temperature: 15°C; Column temperature: 25°C; Detection wavelengths: 280 nm and 214 nm; Mobile phase A: 100% H2O+0.05% TFA; Mobile phase B: 100% ACN; and Gradient of elution listed in Table 4: Table 4. Listing of the gradient of elution in the liquid phase chromatography
Results were shown below in Tables 5, 6, and 7. A difference of more than 5% in content as compared with the initial value was typically assumed (for example, as prescribed by the Chinese Pharmacopeia (2020 Edition)) to be a significant change. Within a reasonable margin of error, a decrease of less than 1% from the initial value to the detected content is denoted as "no change" below. Table 5. Changes in characteristics or properties in the heat accelerated stability assay

[2] = molecular target: T1, human amylin receptor (AMY3) on …; experiment: cell-based or functional assay

EC50/nM, CRE-luciferase in amylin receptor/CRE-luc CHO cells [2] [nM]	Molecule	other results
	CC(C)C[C@H](NC(=O)[C@H](CCCNC(=N)N)NC(=O)CNC(=O)[C@H](CC(C)C)NC(=O)[C@@H](NC(=O)[C@H](C)NC(=O)[C@@H](NC(=O)[C@H](CO)NC(=O)[C@H](CC(C)C)NC(=O)[C@H](CCC(N)=O)NC(=O)[C@H](CO)NC(=O)[C@H](C)NC(=O)[C@H]1CC[C@H](CNC(=O)CCCCCCCCCCCCCCCCCCC(=O)O)CC1)[C@@H](C)O)C(C)C)C(=O)N[C@@H](CO)C(=O)N[C@@H](CC(=O)O)C(=O)N[C@@H](CCC(=O)O)C(=O)N[C@@H](CC(C)C)C(=O)N[C@@H](Cc1c[nH]cn1)C(=O)N[C@@H](CCCNC(=N)N)C(=O)N[C@@H](CC(C)C)C(=O)N[C@@H](CCC(N)=O)C(=O)N[C@@H](CC(=O)O)C(=O)N[C@@H](Cc1ccc(O)cc1)C(=O)N1CCC[C@H]1C(=O)N[C@@H](CCCNC(=N)N)C(=O)N[C@H](C(=O)N[C@@H](CC(=O)O)C(=O)N[C@H](C(=O)NCC(=O)N[C@@H](CO)C(=O)NCC(=O)N[C@@H](CO)C(=O)N1CCC[C@H]1C(N)=O)C(C)C)[C@@H](C)O [M45] ({C20 diacid-Trx}-ASQLSTAVLGRLSDELHRLQDYPRTDVGSGSP-NH2)	Changes in characteristics or properties, 0d ([1]; 1 mg/mL, phosphate, 0d): Clear; Changes in characteristics or properties, 7d ([1]; 1 mg/mL, phosphate, 7d): Clear; Concentration change (7d-0d)/% ([1]; Day 7 vs Day 0, reversed phase chromatography): -2.670%; Purity Change% (7d-0d) ([1]; purity from reversed phase chromatography-214 nm, Day 7 vs Day 0): No change (a decrease of less than 1% from the initial value to the detected content is denoted as "no change"); Purity Change% (26d-0d) ([1]; purity from reversed phase chromatography-214 nm, Day 26 vs Day 0): -1.77%
0.017	{C20 diacid-Inp′}-ASQLSTAVLGRLSEELHRLQDYPRTDVGSGSP-NH2 [calcitonin derivative M56]	
0.017	{C20 diacid-γGlu}-ASQLSTAVLGRLSQELHRLQDYPRTDVGSGSP-NH2 (SMILES CC(C)C[C@H](NC(=O)[C@H](CCCNC(=N)N)NC(=O)CNC(=O)[C@H](CC(C)C)NC(=O)[C@@H](NC(=O)[C@H](C)NC(=O)[C@@H](NC(=O)[C@H](CO)NC(=O)[C@H](CC(C)C)NC(=O)[C@H](CCC(N)=O)NC(=O)[C@H](CO)NC(=O)[C@H](C)NC(=O)CC[C@H](NC(=O)CCCCCCCCCCCCCCCCCCC(=O)O)C(=O)O)[C@@H](C)O)C(C)C)C(=O)N[C@@H](CO)C(=O)N[C@@H](CCC(N)=O)C(=O)N[C@@H](CCC(=O)O)C(=O)N[C@@H](CC(C)C)C(=O)N[C@@H](Cc1c[nH]cn1)C(=O)N[C@@H](CCCNC(=N)N)C(=O)N[C@@H](CC(C)C)C(=O)N[C@@H](CCC(N)=O)C(=O)N[C@@H](CC(=O)O)C(=O)N[C@@H](Cc1ccc(O)cc1)C(=O)N1CCC[C@H]1C(=O)N[C@@H](CCCNC(=N)N)C(=O)N[C@H](C(=O)N[C@@H](CC(=O)O)C(=O)N[C@H](C(=O)NCC(=O)N[C@@H](CO)C(=O)NCC(=O)N[C@@H](CO)C(=O)N1CCC[C@H]1C(N)=O)C(C)C)[C@@H](C)O) [calcitonin derivative M6]	
0.016	{C18 diacid-γGlu}-ASQLSTAVLGRLSDELHRLQDYPRTDVGSGSP-NH2 (SMILES CC(C)C[C@H](NC(=O)[C@H](CCCNC(=N)N)NC(=O)CNC(=O)[C@H](CC(C)C)NC(=O)[C@@H](NC(=O)[C@H](C)NC(=O)[C@@H](NC(=O)[C@H](CO)NC(=O)[C@H](CC(C)C)NC(=O)[C@H](CCC(N)=O)NC(=O)[C@H](CO)NC(=O)[C@H](C)NC(=O)CC[C@H](NC(=O)CCCCCCCCCCCCCCCCC(=O)O)C(=O)O)[C@@H](C)O)C(C)C)C(=O)N[C@@H](CO)C(=O)N[C@@H](CC(=O)O)C(=O)N[C@@H](CCC(=O)O)C(=O)N[C@@H](CC(C)C)C(=O)N[C@@H](Cc1c[nH]cn1)C(=O)N[C@@H](CCCNC(=N)N)C(=O)N[C@@H](CC(C)C)C(=O)N[C@@H](CCC(N)=O)C(=O)N[C@@H](CC(=O)O)C(=O)N[C@@H](Cc1ccc(O)cc1)C(=O)N1CCC[C@H]1C(=O)N[C@@H](CCCNC(=N)N)C(=O)N[C@H](C(=O)N[C@@H](CC(=O)O)C(=O)N[C@H](C(=O)NCC(=O)N[C@@H](CO)C(=O)NCC(=O)N[C@@H](CO)C(=O)N1CCC[C@H]1C(N)=O)C(C)C)[C@@H](C)O) [calcitonin derivative M39]	
0.017	{C20 diacid-γGlu}-ASQLSTAVLGRLSDELHRLQDYPRTDVGSGSP-NH2 (SMILES CC(C)C[C@H](NC(=O)[C@H](CCCNC(=N)N)NC(=O)CNC(=O)[C@H](CC(C)C)NC(=O)[C@@H](NC(=O)[C@H](C)NC(=O)[C@@H](NC(=O)[C@H](CO)NC(=O)[C@H](CC(C)C)NC(=O)[C@H](CCC(N)=O)NC(=O)[C@H](CO)NC(=O)[C@H](C)NC(=O)CC[C@H](NC(=O)CCCCCCCCCCCCCCCCCCC(=O)O)C(=O)O)[C@@H](C)O)C(C)C)C(=O)N[C@@H](CO)C(=O)N[C@@H](CC(=O)O)C(=O)N[C@@H](CCC(=O)O)C(=O)N[C@@H](CC(C)C)C(=O)N[C@@H](Cc1c[nH]cn1)C(=O)N[C@@H](CCCNC(=N)N)C(=O)N[C@@H](CC(C)C)C(=O)N[C@@H](CCC(N)=O)C(=O)N[C@@H](CC(=O)O)C(=O)N[C@@H](Cc1ccc(O)cc1)C(=O)N1CCC[C@H]1C(=O)N[C@@H](CCCNC(=N)N)C(=O)N[C@H](C(=O)N[C@@H](CC(=O)O)C(=O)N[C@H](C(=O)NCC(=O)N[C@@H](CO)C(=O)NCC(=O)N[C@@H](CO)C(=O)N1CCC[C@H]1C(N)=O)C(C)C)[C@@H](C)O) [calcitonin derivative M8]	
0.017	{C20 diacid-Trx′}-ASQLSTAVLGRLSEELHRLQDYPRTDVGSGSP-NH2 (reading uncertain) [calcitonin derivative M55]	
0.017	{C20 diacid-γGlu}-ASQLSTAVLGRLSQELHRLQDYPRTDVGSESP-NH2 (SMILES CC(C)C[C@H](NC(=O)[C@H](CCCNC(=N)N)NC(=O)CNC(=O)[C@H](CC(C)C)NC(=O)[C@@H](NC(=O)[C@H](C)NC(=O)[C@@H](NC(=O)[C@H](CO)NC(=O)[C@H](CC(C)C)NC(=O)[C@H](CCC(N)=O)NC(=O)[C@H](CO)NC(=O)[C@H](C)NC(=O)CC[C@H](NC(=O)CCCCCCCCCCCCCCCCCCC(=O)O)C(=O)O)[C@@H](C)O)C(C)C)C(=O)N[C@@H](CO)C(=O)N[C@@H](CCC(N)=O)C(=O)N[C@@H](CCC(=O)O)C(=O)N[C@@H](CC(C)C)C(=O)N[C@@H](Cc1c[nH]cn1)C(=O)N[C@@H](CCCNC(=N)N)C(=O)N[C@@H](CC(C)C)C(=O)N[C@@H](CCC(N)=O)C(=O)N[C@@H](CC(=O)O)C(=O)N[C@@H](Cc1ccc(O)cc1)C(=O)N1CCC[C@H]1C(=O)N[C@@H](CCCNC(=N)N)C(=O)N[C@H](C(=O)N[C@@H](CC(=O)O)C(=O)N[C@H](C(=O)NCC(=O)N[C@@H](CO)C(=O)N[C@@H](CCC(=O)O)C(=O)N[C@@H](CO)C(=O)N1CCC[C@H]1C(N)=O)C(C)C)[C@@H](C)O) [calcitonin derivative M21]	
0.022	{C22 diacid-γGlu}-ASQLSTAVLGRLSDELHRLQDYPRTDVGSGSP-NH2 (SMILES CC(C)C[C@H](NC(=O)[C@H](CCCNC(=N)N)NC(=O)CNC(=O)[C@H](CC(C)C)NC(=O)[C@@H](NC(=O)[C@H](C)NC(=O)[C@@H](NC(=O)[C@H](CO)NC(=O)[C@H](CC(C)C)NC(=O)[C@H](CCC(N)=O)NC(=O)[C@H](CO)NC(=O)[C@H](C)NC(=O)CC[C@H](NC(=O)CCCCCCCCCCCCCCCCCCCCC(=O)O)C(=O)O)[C@@H](C)O)C(C)C)C(=O)N[C@@H](CO)C(=O)N[C@@H](CC(=O)O)C(=O)N[C@@H](CCC(=O)O)C(=O)N[C@@H](CC(C)C)C(=O)N[C@@H](Cc1c[nH]cn1)C(=O)N[C@@H](CCCNC(=N)N)C(=O)N[C@@H](CC(C)C)C(=O)N[C@@H](CCC(N)=O)C(=O)N[C@@H](CC(=O)O)C(=O)N[C@@H](Cc1ccc(O)cc1)C(=O)N1CCC[C@H]1C(=O)N[C@@H](CCCNC(=N)N)C(=O)N[C@H](C(=O)N[C@@H](CC(=O)O)C(=O)N[C@H](C(=O)NCC(=O)N[C@@H](CO)C(=O)NCC(=O)N[C@@H](CO)C(=O)N1CCC[C@H]1C(N)=O)C(C)C)[C@@H](C)O) [calcitonin derivative M38]	
